Converted amounts (≈) assume the structure as drawn.
Key:
[1] = test system: Propionibacterium acnes NB99001; assay: MIC against anaerobic bacteria; assay type: cell-based; conditions: Cutibacterium acnes, read-out: minimal inhibitory concentration (MIC)
[2] = test system: Bacteroides fragilis NB85001; assay: MIC against anaerobic bacteria; assay type: cell-based; conditions: read-out: minimal inhibitory concentration (MIC)
[3] = test system: Eubacterium lentum NB94001; assay: MIC against anaerobic bacteria; assay type: cell-based; conditions: read-out: minimal inhibitory concentration (MIC)
[4] = test system: Prevotella intermedia NB88001; assay: MIC against anaerobic bacteria; assay type: cell-based; conditions: read-out: minimal inhibitory concentration (MIC)
[5] = test system: Peptostreptococcus anaerobius NB97001; assay: MIC against anaerobic bacteria; assay type: cell-based; conditions: read-out: minimal inhibitory concentration (MIC)
[6] = test system: Enterococcus faecalis (29212); assay: BacTiter-Glo bacterial ATP content viability assay; conditions: for E. faecals viability by ATP-coupled luminescence assay: FIG. 12, full length protein
[7] = test system: Staphylococcus aureus (29213); assay: BacTiter-Glo bacterial ATP content viability assay; conditions: for S. aureus viability by ATP-coupled luminescence assay: FIG. 12, full length protein
[8] = test system: Listeria monocytogenes (7644); assay: BacTiter-Glo bacterial ATP content viability assay
Bacillus Subtilis (6633) = assay: BacTiter-Glo bacterial ATP content viability assay; conditions: for B. subtilis viability by ATP-coupled luminescence assay: FIG. 12, full length protein
S. maltophilia = assay: Bacterial growth inhibition (FIG. 15); assay type: cell-based, Stenotrophomonas maltophilia; conditions: FIG. 15 Panel A
[9] = test system: Stenotrophomonas maltophilia (17666); assay: BacTiter-Glo bacterial ATP content viability assay; conditions: gram −, +/− SD, n = 3, >100 = activity detected but <50% inhibition
[10] = test system: Streptococcus pneumoniae (49619); assay: BacTiter-Glo bacterial ATP content viability assay; conditions: gram +, +/− SD, n = 3, >100 = activity detected but <50% inhibition
[11] = test system: Streptococcus pneumoniae (ATCC 49619); assay: Gentamycin protection assay in stable 293 cell lines; conditions: 293 cells stably expressing the protein, infected with S. pneumoniae at MOI 10:1, versus control cells
[12] = test system: Pseudomonas aeruginosa (27853); assay: BacTiter-Glo bacterial ATP content viability assay; conditions: gram −, +/− SD, n = 3, >100 = activity detected but <50% inhibition
[13] = test system: Salmonella choleraesuis (13076); assay: BacTiter-Glo bacterial ATP content viability assay; conditions: gram −, +/− SD, n = 3, >100 = activity detected but <50% inhibition
Escherichia coli (25922) = assay: BacTiter-Glo bacterial ATP content viability assay; conditions: gram −, +/− SD, n = 3, >100 = activity detected but <50% inhibition
[14] = test system: E. coli NB27005* (TolC efflux pump mutant); assay: MIC against aerobic gram negative bacteria, efflux pump mutant; assay type: cell-based, Escherichia coli; conditions: aerobic gram negative; E. coli NB27005*, TolC efflux pump mutant strain
L. monocytogenes = assay: Bacterial growth inhibition (FIG. 15); assay type: cell-based, Listeria monocytogenes; conditions: FIG. 15 Panel C
Escherichia coli (8739) = assay: BacTiter-Glo bacterial ATP content viability assay; conditions: gram −, +/− SD, n = 3, >100 = activity detected but <50% inhibition
[15] = test system: H. influenzae NB65027-CDS0021* (TolC efflux pump mutant); assay: MIC against aerobic gram negative bacteria, efflux pump mutant; assay type: cell-based, Haemophilus influenzae; conditions: aerobic gram negative; H. influenzae NB65027-CDS0021*, TolC efflux pump mutant strain
[16] = test system: Klebsiella pneumoniae (700603); assay: BacTiter-Glo bacterial ATP content viability assay; conditions: gram −, +/− SD, n = 3, >100 = activity detected but <50% inhibition
[17] = test system: lawn of the indicated bacteria; assay: Agar diffusion assay; conditions: FIG. 11 Panel D; 0.5 mg/ml in sterile PBS per well
[18] = FIG. 10, 5×10^5 bacteria/100 μl, increasing concentrations, 6 hours at 37° C., relative to controls

O=C(O)c1cn(C2CC2)c2cc(N3CCNCC3)c(F)cc2c1=O [Ciprofloxacin, reference compound]
MIC [1]: 1 µg/mL (≈ 3.02 µM)
MIC [2]: 8 µg/mL (≈ 24.1 µM)
MIC [3]: 2 µg/mL (≈ 6.04 µM)
MIC [4]: 1 µg/mL (≈ 3.02 µM)
MIC [5]: 1 µg/mL (≈ 3.02 µM)

G908R: full length Nod2 protein carrying the Crohn's-associated G908R mutation
E. faecals viability by ATP-coupled luminescence assay [6]: deficient
S. aureus viability by ATP-coupled luminescence assay [7]: deficient
L. monocytogenes viability by ATP-coupled luminescence assay ([8]; FIG. 12, full length protein): deficient
B. subtilis viability by ATP-coupled luminescence assay (Bacillus Subtilis (6633)): deficient

TLR2: recombinant LRR domain of Toll-like receptor 2; human TLR2-LRR is SEQ ID NO: 6
L. monocytogenes viability by ATP-coupled luminescence assay [8, 18]: inhibit

B1: Nalp3: recombinant LRR domain of Nalp3; human Nalp3-LRR is SEQ ID NO: 7 (protein, listed as Homo sapiens)
chain: MVQCVLPSSSHAACSHGLVNSHLTSSFCRGLFSVLSTSQSLTELDLSDNSLGDPGMRVLCETLQHPGCNIRRLWLGRCGLSHECCFDISLVLSSNQKLVELDLSDNALGDFGIRLLCVGLKHLLCNLKKLWLVSCCLTSACCQDLASVLSTSHSLTRLYVGENALGDSGVAILCEKAKNPQCNLQKLGLVNSGLTSVCCSALSSVLSTNQNLTHLYLRGNTLGDKGIKLLCEGLLHPDCKLQVLELDNCNLTSHCCWDLSTLLTSSQSLRKLSLGNNDLGDLGVMMFCEVLKQQSCLLQNLGLSEMYFNYETKSALETLQEEKPELTVVFEPSW
L. monocytogenes viability by ATP-coupled luminescence assay [8, 18]: inhibit

B2: NAIP: Neuronal apoptosis inhibitor protein, an LRR protein (protein, UniProt Q13075 1-1403, looked up)
Baculoviral IAP …: MATQQKASDERISQFDHNLLPELSALLGLDAVQLAKELEEEEQKERAKMQKGYNSQMRSEAKRLKTFVTYEPYSSWIPQEMAAAGFYFTGVKSGIQCFCCSLILFGAGLTRLPIEDHKRFHPDCGFLLNKDVGNIAKYDIRVKNLKSRLRGGKMRYQEEEARLASFRNWPFYVQGISPCVLSEAGFVFTGKQDTVQCFSCGGCLGNWEEGDDPWKEHAKWFPKCEFLRSKKSSEEITQYIQSYKGFVDITGEHFVNSWVQRELPMASAYCNDSIFAYEELRLDSFKDWPRESAVGVAALAKAGLFYTGIKDIVQCFSCGGCLEKWQEGDDPLDDHTRCFPNCPFLQNMKSSAEVTPDLQSRGELCELLETTSESNLEDSIAVGPIVPEMAQGEAQWFQEAKNLNEQLRAAYTSASFRHMSLLDISSDLATDHLLGCDLSIASKHISKPVQEPLVLPEVFGNLNSVMCVEGEAGSGKTVLLKKIAFLWASGCCPLLNRFQLVFYLSLSSTRPDEGLASIICDQLLEKEGSVTEMCVRNIIQQLKNQVLFLLDDYKEICSIPQVIGKLIQKNHLSRTCLLIAVRTNRARDIRRYLETILEIKAFPFYNTVCILRKLFSHNMTRLRKFMVYFGKNQSLQKIQKTPLFVAAICAHWFQYPFDPSFDDVAVFKSYMERLSLRNKATAEILKATVSSCGELALKGFFSCCFEFNDDDLAEAGVDEDEDLTMCLMSKFTAQRLRPFYRFLSPAFQEFLAGMRLIELLDSDRQEHQDLGLYHLKQINSPMMTVSAYNNFLNYVSSLPSTKAGPKIVSHLLHLVDNKESLENISENDDYLKHQPEISLQMQLLRGLWQICPQAYFSMVSEHLLVLALKTAYQSNTVAACSPFVLQFLQGRTLTLGALNLQYFFDHPESLSLLRSIHFPIRGNKTSPRAHFSVLETCFDKSQVPTIDQDYASAFEPMNEWERNLAEKEDNVKSYMDMQRRASPDLSTGYWKLSPKQYKIPCLEVDVNDIDVVGQDMLEILMTVFSASQRIELHLNHSRGFIESIRPALELSKASVTKCSISKLELSAAEQELLLTLPSLESLEVSGTIQSQDQIFPNLDKFLCLKELSVDLEGNINVFSVIPEEFPNFHHMEKLLIQISAEYDPSKLVKLIQNSPNLHVFHLKCNFFSDFGSLMTMLVSCKKLTEIKFSDSFFQAVPFVASLPNFISLKILNLEGQQFPDEETSEKFAYILGSLSNLEELILPTGDGIYRVAKLIIQQCQQLHCLRVLSFFKTLNDDSVVEIAKVAISGGFQKLENLKLSINHKITEEGYRNFFQALDNMPNLQELDISRHFTECIKAQATTVKSLSQCVLRLPRLIRLNMLSWLLDADDIALLNVMKERHPQSKYLTILQKWILPFSPIIQK
growth of S. maltophilia (S. maltophilia): inhibited the growth

B3: Nod2 3020insC: recombinant LRR domain of the Crohn's-associated 3020insC mutant of Nod2 (deoxycytosine inserted at nucleotide position 3020) (protein)
chain: PAAPGEAKSVHAMPGFIWLIRSLYEMQEERLARKAARGLNVGHLKLTFCSVGPTECAALAFVLQHLRRPVALQLDYNSVGDIGVEQLLPCLGVCKALYLRDNNISDRGICKLIECALHCEQLQKLALFNNKLTDGCAHSMAKLLACRQNFLALRLGNNYITAAGAQVLAEGLRGNTSLQFLGFWGNRVGDEGAQALAEALGDHQSLRWLSLVGNNIGSVGAQALALMLAKNVMLEELCLEENHLQDEGVCSLAEGLKKNSSLKILKLSNNCITYLGAEALLQAP
antibacterial activity by bacterial ATP content (IC50), [LRR domain] [9]: None detected
antibacterial activity by bacterial ATP content (IC50), [LRR domain] ([6]; Enterococcus faecalis (29212), gram +, +/− SD, n = 3, >100 = activity detected but <50% inhibition): None detected
E. faecals viability by ATP-coupled luminescence assay [6]: deficient
S. aureus viability by ATP-coupled luminescence assay [7]: deficient
antibacterial activity by bacterial ATP content (IC50), [LRR domain] ([7]; Staphylococcus aureus (29213), gram +, +/− SD, n = 3, >100 = activity detected but <50% inhibition): None detected
antibacterial activity by bacterial ATP content (IC50), [LRR domain] [10]: None detected
number of gentamycin-protected intracellular bacteria [11]: No obvious protection
antibacterial activity by bacterial ATP content (IC50), [LRR domain] [12]: None detected
antibacterial activity by bacterial ATP content (IC50), [LRR domain] [13]: None detected
antibacterial activity by bacterial ATP content (IC50), [LRR domain] (Escherichia coli (25922)): None detected
L. monocytogenes viability by ATP-coupled luminescence assay ([8]; FIG. 12, full length protein): deficient
antibacterial activity by bacterial ATP content (IC50), [LRR domain] ([8]; Listeria monocytogenes (7644), gram +, +/− SD, n = 3, >100 = activity detected but <50% inhibition): 16.5 +/− 13.3 microgram/ml
minimal inhibitory concentration (MIC) [14]: >128 microgram/ml
L. monocytogenes growth (L. monocytogenes): inhibited
antibacterial activity by bacterial ATP content (IC50), [LRR domain] (Escherichia coli (8739)): None detected
antibacterial activity by bacterial ATP content (IC50), [LRR domain] (Bacillus Subtilis (6633); Bacillus Subtilis (6633), gram +, +/− SD, n = 3, >100 = activity detected but <50% inhibition): 54.0 +/− 20.2 microgram/ml
B. subtilis viability by ATP-coupled luminescence assay (Bacillus Subtilis (6633)): deficient
minimal inhibitory concentration (MIC) [15]: 64 microgram/ml
antibacterial activity by bacterial ATP content (IC50), [LRR domain] [16]: None detected
anti-bacterial activity by agar diffusion assay [17]: not
